In this assay the target is ErbB2-Domain4 protein (human) (UniProt P04626). As to the kind of experiment: indirect ELISA, ErbB2-Domain4 protein coated at 100 ng/well, antibody in serial dilution, absorbance at 450 nm.

B1: anti-ErbB2 monoclonal antibody 19G9 (antibody, V domains shown)
VH: LEQSGPGILQPSQTLSLICSFSGFSLSTSGMGVSWIRQPSGKGLEWLAHIYWDDDKRYNPSLKSRLTISKDTSSKQVFLKITSVDTADTATYYCALFAYYNYDGTVDYWGLGTSVTVSS
VL: DIVMTQTPSSLAVSVGEKVTMSCKSSQSLLHSRTRKNYLAWYQQKLGQSPKLLIYWASTRESGVPDRFTGSGSGTDFTLTISSVEAEDLAVYYCKQSYNLYTFGGGTKLEIK
A word on the EC50: it is the concentration needed to bring the measured effect to its halfway point. In turn, B1 showed an EC50 of 100 nM.
